Test results: paper PMC6314547 (The Journal of Cell Biology, 2019)

Molecular target: the molecule itself
Experiment: SEC-MALS

B1: FAM92A1 BAR domain (1–219 aa) (domain or fragment, UniProt A1XBS5 1-219, looked up)
chain: MMRRTLENRNAQTKQLQTAVSNVEKHFGELCQIFAAYVRKTARLRDKADLLVNEINAYAATETPHLKLGLMNFADEFAKLQDYRQAEVERLEAKVVEPLKTYGTIVKMKRDDLKATLTARNREAKQLTQLERTRQRNPSDRHVISQAETELQRAAMDASRTSRHLEETINNFERQKMKDIKTIFSEFITIEMLFHGKALEVYTAAYQNIQNIDEDEDLE
stoichiometry N: 2
